Tested on: K4 kissing-loop RNA reporter
Assay: apparent KD of K4 kissing-loop reporter; higher = weaker reporter binding
Settings: Eterna round: R107
Experimental: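 RNA-MaP round R107: designed RNA switches with theophylline, tryptophan, arginine or FMN aptamers are transcribed on-chip within common flanks. They are titrated with a labelled K4 kissing-loop RNA reporter in RNA-MaP buffer (100 mM Tris pH 7.5, 80 mM KCl, 4 mM MgCl2), without ligand or with the indicated ligand. Median apparent KD per design.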

[1] = input ligand: theophylline 20 uM
[2] = input ligand: tryptophan 2.4 mM
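Further: bound reporter read as fluorescence of individual clusters on recovered sequencing chips by microscopy, with normalized cluster intensities fitted with a binding model.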

Sequence | apparent KD of K4 kissing-loop reporter (input ligand: FMN 200 uM) [nM] | apparent KD of K4 kissing-loop reporter (input ligand: arginine 13.2 mM) [nM] | apparent KD of K4 kissing-loop reporter (input ligand: none) [nM] | apparent KD of K4 kissing-loop reporter [1] [nM] | apparent KD of K4 kissing-loop reporter [2] [nM]
UGAUAGGACAGAAGGAGCGGAAUCCUGUCAAAGACAGGAAAAUAAAUAAAAGGAGUGAUGUUCCAGGUAGGUCGCUGUCCUAUCU [ArgBX 19 #SwitchBubble #StaticStem] | 271 | 210 | 248 | 243 | 215
UGAUAGGACAGAAGGAGCGGAAUGCUAGUCAAAGACUAGCAACGUUAAACAGGAGUGAUGUUCCAGGUAGGUCGCUGUCCUAUCU [ArgBX 22 #SwitchBubble #StaticStem] | 143 | 124 | 135 | 140 | 113
UGAUUGAACUGAAGGAGCGGCAAGAGAGAAGGAAAUAUAGUGAUGUUAUAUAAGAGAGAGAGCCAGGUAGGUCGCAGAGGGAGGA [ExArgB.D] | 198 | 113 | 159 | 134 | 151
UGAUUGCCAGUGAUGUUGGCAUAAACUGAAGGAGCGCGUGAAAACGCAGGUAGGUCGCAGUACCAUGCCAAUUGAUCGAAAGAUC [KL-XArg-A2] | 143 | 150 | 155 | 169 | 141
UGAUUGGCAAAAGUAGUGAUGUUACGAAUAUAGGAUAUUAGAGGAAUAAGAAGGAUAAGGGAGAAAUAGGUAAAUUGUUGGUUGG [whbob_SS_FMNA__2th171] | 45.6 | 48.4 | 285 | 150 | 70.3
UGAUUGGCGAAAGUAGUGAUGUUACGAAUAUAGGAUAUUAGAGGAAUAAGAAGGAUAAGGGAGAAAUAGGUAAAUUGUUGGUUGG [whbob_SS_FMNA__2th170] | 132 | 79.7 | 128 | 126 | 100
UGCCGCAAGGCGAGCGCUCCCACUCCGGAAGGAGCGCCCGCAAGGGCAGGUAGGUCGCCGGAGUGAUGUUCCGGUGGAGGGCUCG [#2 Exclusion - Arginine A Attempt #25 (Inspired by Omei)] | 201 | 188 | 174 | 164 | 157
UGGAGUUGACGAAAAGUCAACUCCAGAGAAGGAGCGGACGAAAGUCCAGGUAGGUCGCUCACUACCAGUGAUGUUGGUACUUAAA | 68.4 | 243 | 170 | 137 | 139
UGGAUAUAGUGAUGUUAUAUAGAGAUGGAUACCAGCGAAGAGAAUUGCCCUUGGCAGCCGAAAGAAGUAUCAUUAGAGAAGAAUG [ExTheophyl.Ah] | 254 | 213 | 252 | 261 | 186
UGGAUAUCGUUUAGUCUGGUGAGCUCAGAUACCAGACUAGCGAUAGUCCCUUGGCAGCUGAUUAUGAUUGAGUGAUGUUCAAUCG [Theo A Ex t9b] | 168 | 142 | 168 | 151 | 157
UGGGAUGUUAAAGGAUAUAGCAGGUGAUAUAAGAAAGUGAGUGAUGUUUAUGUAGAUGAUGAUAUGUUAGAAGGUUAACAAAACG [abcdefghi] | 427 | 258 | 340 | 318 | 282
UGGGUGUAGUGAUGUUAUAUAGAGAGUGAUACCAGUUUAGAGAGGAACCCUUGGCAGCAUAGAAGAGUAUCAUUGGAGGAGGAGG [ExTheophyl.Aw] | 677 | 505 | 696 | 606 | 433
UGUACCGAGUCAGGAUAUCAUAAUAAAUGCAGUGAUGUUGCAAUAACCAGUACAAAAGUGCUGGAUUGAGAAGGGACUUGGUACU [FmnBS 5 #SwitchBubble #StaticStem] | 99 | 126 | 126 | 119 | 112
UGUACCGAGUCAGGAUAUGGCCGGAAACGGAAUAACCAGUGAUGUUGGAAUAAAUGGCGAAAGCCUCCAGAAGGGACUUGGUACU [FmnBS 18 #SwitchBubble #StaticStem #DoubleMagnetSystem] | 158 | 213 | 211 | 212 | 185
UGUACCGAGUCAGGAUAUGGCGUCGAAAGACGAAUCCUAGUGAUGUUAGCGAUCUGCGAAAGCAGUCCAGAAGGGACUUGGUACU [FmnBS 26 C50] | 219 | 338 | 438 | 371 | 290
UGUACCGAGUCAGGAUAUGGCGUCGAAAGACGAAUUCUAGUGAUGUUAGGGAUCUGCGAAAGCAGUCCAGAAGGGACUUGGUACU [FmnBS 26 U36] | 322 | 439 | 607 | 692 | 542
UGUACCGAGUCAGGAUAUGGUAUACCGGAAACGGACCAGUGAUGUUGGAGGCGAAAGCCAUAAAAUCCAGAAGGGACUUGGUACU [FmnBS 19 #SwitchBubble #StaticStem #DoubleMagnetSystem] | 223 | 569 | 614 | 893 | 411
UGUACCGAGUCAGGAUAUGUCGUCGAAAGACGAAAUGGAGUGAUGUUCCUUAAACUGCGAAAGCAGACAGAAGGGACUUGGUACU [FmnBS 29 #SwitchBubble #StaticStem #DoubleMagnetSystem] | 160 | 278 | 385 | 331 | 274
UGUAUGGACUGAAGGAGCGCUAGGAGUGUGAGUGAUGUUCAUACAAAUGUAUAGAUGGUCUGGCAGGUAGGUCGCAGUCCAUACU [KL-SSArg B4] | 258 | 145 | 203 | 156 | 184
UGUCAUGGAAACAUGAACGUUGAAAUAAGACGAGGACCGGUACGGCCGCCACUCGAAUAAUGGUCAGUGAUGUUGACUGGAAUAA [KL-SSTryp-A form1 sub7 #dotplot2>1] | 60.5 | 104 | 70.3 | 103 | 61.3
UGUCAUGGAAACAUGAACGUUGAAAUAUGACGAGGACCGGUACGGCCGCCACUCGAGUAAUGGUCAGUGAUGUUGACUGGAUUAA [KL-SSTryp-A form1 sub5 #split stat1] | 59.9 | 110 | 81.9 | 103 | 51.9

From the supplement of paper PMC9170038
